Here are results for 1 substance from US6462173B1, “Inhibitors of phosphoserine and phosphothreonine-proline-specific isomerases” (Max-Planck-Gesellschaft zur Forderung der, priority 1997, dated 2002).

What all share (type): biochemical
The test system of assay [1] is Xenopus egg extracts. Kind of assay: Entry into mitosis in Xenopus CSF egg extracts. The settings on record: 10 or 40 μM, added 15 min after Ca2+. The procedure: Xenopus CSF extracts were prepared from unfertilized eggs, as previously described (Murray, 1991) and used immediately. To examine the effect of Pin1 on mitotic entry, a fresh CSF extract containing demembranated sperm (150/μl) and rhodamine tubulin (2 μg/ml) was activated by addition of 0.4 mM calcium chloride for 15 min, before the indicated concentrations of various Pin1 proteins were added and mitotic entry was followed for 2 h by nuclear morphology, nuclear envelope breakdown, spindle formation and Cdc2 activity, as described previously (Murray, A. W., Methods Cell Biol 36:581-605 (1991)). The cell cycle state of nuclei within the extracts were over 90% synchronous and typical nuclei were photographed.
To examine whether increasing the concentration of Pin1 has similar biological effects in Xenopus, Pin1 or Pin1 mutants were injected into one cell of 2 cell stage embryos and allowed the embryos to develop for 3 h (about 5 divisions). […] A similar concentration (4 μM final) of either Pin1 mutant had little effect on the cell cycle. […] In contrast, higher concentrations of the mutant proteins were needed to block the cell cycle (FIG. 1). […] In contrast, the same extracts containing 40 μM of either BSA or the mutant Pin1 proteins entered mitosis by 70 to 80 min as detected by nuclear envelope breakdown, spindle formation and high histone H1 kinase activity. […]

The target of assay [2] is T1, cyclin B/Cdc2 (Xenopus laevis, UniProt P35567).
T1 construct: from tissue; host or cells: Xenopus interphase egg extract (Cdc2); recombinant GST cyclin B added
Kind of assay: Activity of dephosphorylated-active cyclin B/Cdc2. The settings on record: same conditions as Cdc25 assay. The method, then:
(§1) Cdc2 was assayed using histone H1 as a substrate, as previously described in Murray, 1991; Lu and Hunter, (1995).
Therefore, we tested whether Pin1 could affect the physiological activity of Cdc25, which is to dephosphorylate and activate the cyclin B/Cdc2 complex. To generate the mitotically phosphorylated form of Cdc25, GST-Cdc25 was incubated in Xenopus mitotic extracts, affinity purified on glutathione agarose beads and eluted. […] This offers one explanation for the ability of Pin1 to inhibit mitotic entry.

In assay [3] the target is T2, mitotic GST-Cdc25 (Xenopus laevis, UniProt P30309).
T2 construct: made in house
T2 sequence (P30309 1-550): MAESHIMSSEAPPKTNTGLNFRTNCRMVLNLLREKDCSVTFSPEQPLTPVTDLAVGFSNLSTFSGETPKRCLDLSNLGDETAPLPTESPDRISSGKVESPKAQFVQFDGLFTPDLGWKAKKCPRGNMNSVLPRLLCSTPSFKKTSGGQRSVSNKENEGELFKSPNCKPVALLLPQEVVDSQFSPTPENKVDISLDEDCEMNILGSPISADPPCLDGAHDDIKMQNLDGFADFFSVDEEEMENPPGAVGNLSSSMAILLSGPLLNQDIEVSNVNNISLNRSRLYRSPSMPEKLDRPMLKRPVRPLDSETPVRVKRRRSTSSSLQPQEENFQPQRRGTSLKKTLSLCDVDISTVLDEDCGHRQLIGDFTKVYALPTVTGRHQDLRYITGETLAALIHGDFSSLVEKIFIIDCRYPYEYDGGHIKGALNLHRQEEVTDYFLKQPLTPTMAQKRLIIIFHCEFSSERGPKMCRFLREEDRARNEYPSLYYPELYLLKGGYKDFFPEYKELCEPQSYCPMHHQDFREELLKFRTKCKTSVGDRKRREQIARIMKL
As to the kind of experiment: Cdc25 activity assay (activation of cyclin B/Cdc2, H1 kinase). The settings on record: 0.67 μM protein, 1 μM mitotic Cdc25. The method, then: as §1
A subthreshold concentration of GST cyclin B (10 μg) was added to 1 ml of Xenopus interphase extract for thirty min at room temperature (Solomon, M. J., M. Glotzer, T. H. Lee, M. Philippe and M. W. Kirschner, Cell 63:1013-1024 (1990). This was diluted 8 fold in XB+3 mM DTT, rotated for 1 h with 3 ml of GST agarose beads, washed 3 times in XBIP (XB+500 mM NaCl and 1% NP40+2 mM DTT), washed 2 times (once overnight) in EB (80 mM β glycerol phosphate, 15 mM EGTA, 15 mM MgCl2)+2 mM DTT, 500 mM NaCl and 1% NP40, and finally twice with EB+10 mM DTT. These Cdc25 assay beads were stored at 4° C. for up to 1 month. Mitotic GST-Cdc25 was purified by incubating 22 μg of GST-Cdc25, in a Xenopus mitotic extract for 30 min at 23° C., this was diluted 8 fold in XB and rotated with 50 μl of glutathione-Agarose beads (Sigma) for 1 hr at 4° C. The beads were washed 5 times in XB-IP, twice in XB+2 mM DTT and eluted in 25 μl XB+2 mM reduced GSH. The final concentration of Mitotic GST-Cdc25 was 0.36 mg/ml. […] Phosphoimager analysis of the H1 kinase assays were quantified by the Molecular Dynamics ImageQuant 3.3 software. […] The most reproducible way to quantify the Cdc25 activity in this assay was by determining the endpoint dilution of Cdc25 which could activate Cdc2. […]

T1 sequence (P35567 whole entry): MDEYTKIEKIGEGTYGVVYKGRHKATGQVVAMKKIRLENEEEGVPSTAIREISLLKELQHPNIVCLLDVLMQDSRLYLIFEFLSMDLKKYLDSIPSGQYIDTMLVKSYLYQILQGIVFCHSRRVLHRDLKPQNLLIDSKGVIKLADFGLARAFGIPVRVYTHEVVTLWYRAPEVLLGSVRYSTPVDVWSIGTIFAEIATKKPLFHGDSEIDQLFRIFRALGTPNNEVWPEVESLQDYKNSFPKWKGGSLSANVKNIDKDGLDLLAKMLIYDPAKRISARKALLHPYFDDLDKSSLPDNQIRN
T1 sequence (P07818 whole entry partner): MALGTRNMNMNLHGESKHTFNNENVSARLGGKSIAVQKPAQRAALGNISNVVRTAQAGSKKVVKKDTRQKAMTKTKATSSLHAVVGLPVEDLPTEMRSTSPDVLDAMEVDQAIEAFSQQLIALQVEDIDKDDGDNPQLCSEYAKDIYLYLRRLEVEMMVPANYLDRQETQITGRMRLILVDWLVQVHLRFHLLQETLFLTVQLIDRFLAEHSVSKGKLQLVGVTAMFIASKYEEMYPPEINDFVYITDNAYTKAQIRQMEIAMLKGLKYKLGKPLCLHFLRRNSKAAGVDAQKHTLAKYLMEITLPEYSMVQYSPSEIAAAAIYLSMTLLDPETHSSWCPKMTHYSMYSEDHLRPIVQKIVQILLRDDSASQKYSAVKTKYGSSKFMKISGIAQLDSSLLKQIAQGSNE

As for “Pin1: essential mitotic peptidyl-prolyl cis-trans isomerase, recombinant protein”, the entry into mitosis entry in assay [1] is “completely blocked entry into mitosis”. Moreover, the “effect on cdc2 activity” value in assay [2] was “Neither Pin1 nor the Pin1 mutant had any effect on cdc2 activity”. For the same substance, the “effect on Cdc25 activity” value in assay [3] is reported as “mitotic Cdc25 failed to activate the Cdc2 complex”.
